The source of these data is PMC10415143.

Test [1] deals with ALPH1ΔN (amino acids 222-734), recombinant (T. brucei). Nature of the test: SEC-MALS; 100 µl injected at 5 mg/ml on Superdex 200 Increase 10/300 GL, 15°C, 0.4 ml/min, PBS buffer. In general terms: In gel filtration, larger molecules generally elute earlier.
Test [2] addresses Full length ALPH1 (amino acid 1-734), recombinant (T. brucei). The description is as above.

The term stoichiometry N denotes the number of molecules, sites or subunits per partner or assembly. As for “ALPH1ΔN (amino acids 222-734), recombinant (domain or fragment)”, in test [1], the stoichiometry N came out at 2.

As to “Full length ALPH1 (amino acid 1-734), recombinant (enzyme)”, the stoichiometry N in test [2] was 2.
